Results reported in publication PMC4297426.

These substances were tested against Gal4 (BD)-human NP: nucleoprotein of the contemporary human IAV H3N2 strain A/Ca/07/04 (influenza A virus H3N2, strain A/Ca/07/04 (human)) (assay: two-hybrid).
“ATPase, Na+/K+ transporting, beta 1 polypeptide (ATP1B1) (domain or fragment)” gave a β-Gal activity of 3.4 Miller units. “Acyl-CoA thioesterase 13 (ACOT13) (from UniProt Q9NPJ3 1-140) (natural protein)” showed a β-Gal activity of 6.9 Miller units. For “Cytoskeleton associated protein 5 (CKAP5) (domain or fragment)”, the β-Gal activity was 70.1 Miller units. Substance “FLJ30306 (…: Homo sapiens uncharacterized LOC101059922, mRNA) (natural protein)” has a β-Gal activity of 1.9 Miller units. With “Myb/SANT-like DNA-binding domain containing 3 (MSANTD3) (domain or fragment)” the β-Gal activity was 13.9 Miller units. For “Potassium channel tetramerisation domain containing 9 (KCTD9) (domain or fragment)”, the β-Gal activity was 5 Miller units. Work on “Proteasome (prosome, macropain) activator subunit 2 (PA28B) (from UniProt Q9UL46 1-239) (natural protein)” yielded a β-Gal activity of 6.7 Miller units. With “Solute carrier family 30 (zinc transporter), member 9 (SLC30A9) (domain or fragment)” the β-Gal activity was 82.9 Miller units. In the case of “Transformer 2 beta homolog (Drosophila) (TRA2B) (from UniProt P62995 1-288) (natural protein)”, the β-Gal activity is reported as 1.9 Miller units. Substance “phosphoribosylaminoimidazole carboxylase, phosphoribosylaminoimidazole succinocarboxamide synthetase (PAICS) (from UniProt P22234 1-425) (natural protein)” has a β-Gal activity of 2.2 Miller units.
